What follows are binders tested against T1, CD3ε homodimer protein (human, UniProt P07766 23-126, limits assumed, sulfo-tag or biotin label in some ECL assays) (assay: SPR, CD3ε homodimer on chip;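 further: biacore SPR with antibody variants flowed as analyte over amine-coupled CD3ε homodimer on a CM chip, bound amount of each single-residue H chain variant over that of parent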).
T1 construct: also called human CD3ε homodimer protein; CD3 (CD3ε)
T1 sequence (P07766 23-126 limits assumed): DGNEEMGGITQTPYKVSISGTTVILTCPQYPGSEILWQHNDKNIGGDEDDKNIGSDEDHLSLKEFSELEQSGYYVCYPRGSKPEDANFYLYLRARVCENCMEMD
Experimental: An appropriate amount of CD3ε homodimer protein was immobilized onto Sensor chip CM4 (GE Healthcare Japan Corp.) by the amine coupling method. Then, the antibody having an appropriate concentration was injected thereto as an analyte and allowed to interact with the CD3ε homodimer protein on the sensor chip. Then, the sensor chip was regenerated by the injection of 10 mmol/L glycine-HCl (pH 1.5). The assay was conducted at 25° C., and HBS-EP+ (GE Healthcare Japan Corp.) was used as a running buffer. […] Each parameter was calculated using Biacore T200 Evaluation Software (GE Healthcare Japan Corp.).
Specifically, when the amount of the antibody comprising CE115HA000 bound was defined as X and the amount of the H chain one-amino acid altered form bound was defined as Y, a value of Z (ratio of amounts bound)=Y/X was used.

| ratio of amounts bound vs CE115HA000 | Binder |
| --- | --- |
| 0.74 | CE115HA000 K52bY (antibody, name in Kabat numbering, V domains shown) VH: QVQLVESGGGVVQPGRSLRLSCAASGFTFSNAWMHWVRQAPGKGLEWVAQIKAYSNNYATYYAESVKGRFTISRDDSKNSLYLQMNSLKTEDTAVYYCRYVHYGAYYGVDAWGQGTTVTVSS VL: DIVMTQSPLSLPVTPGEPASISCRSSQSLVHSNRNTYLHWYQQKPGQAPRLLIYKVSNRFSGVPDRFSGSGSGTDFTLKISRVEAEDVGVYYCGQGTQVPYTFGQGTKLEIK |
| 0.39 | CE115HA000 N31G (antibody, name in Kabat numbering, V domains shown) VH: QVQLVESGGGVVQPGRSLRLSCAASGFTFSGAWMHWVRQAPGKGLEWVAQIKAKSNNYATYYAESVKGRFTISRDDSKNSLYLQMNSLKTEDTAVYYCRYVHYGAYYGVDAWGQGTTVTVSS VL: DIVMTQSPLSLPVTPGEPASISCRSSQSLVHSNRNTYLHWYQQKPGQAPRLLIYKVSNRFSGVPDRFSGSGSGTDFTLKISRVEAEDVGVYYCGQGTQVPYTFGQGTKLEIK |
| 0.5 | CE115HA000 N31A (antibody, name in Kabat numbering, V domains shown) VH: QVQLVESGGGVVQPGRSLRLSCAASGFTFSAAWMHWVRQAPGKGLEWVAQIKAKSNNYATYYAESVKGRFTISRDDSKNSLYLQMNSLKTEDTAVYYCRYVHYGAYYGVDAWGQGTTVTVSS VL: DIVMTQSPLSLPVTPGEPASISCRSSQSLVHSNRNTYLHWYQQKPGQAPRLLIYKVSNRFSGVPDRFSGSGSGTDFTLKISRVEAEDVGVYYCGQGTQVPYTFGQGTKLEIK |
| 0.68 | CE115HA000 N31H (antibody, name in Kabat numbering, V domains shown) VH: QVQLVESGGGVVQPGRSLRLSCAASGFTFSHAWMHWVRQAPGKGLEWVAQIKAKSNNYATYYAESVKGRFTISRDDSKNSLYLQMNSLKTEDTAVYYCRYVHYGAYYGVDAWGQGTTVTVSS VL: DIVMTQSPLSLPVTPGEPASISCRSSQSLVHSNRNTYLHWYQQKPGQAPRLLIYKVSNRFSGVPDRFSGSGSGTDFTLKISRVEAEDVGVYYCGQGTQVPYTFGQGTKLEIK |
| 0.89 | CE115HA000 K64Q (antibody, name in Kabat numbering, V domains shown) VH: QVQLVESGGGVVQPGRSLRLSCAASGFTFSNAWMHWVRQAPGKGLEWVAQIKAKSNNYATYYAESVQGRFTISRDDSKNSLYLQMNSLKTEDTAVYYCRYVHYGAYYGVDAWGQGTTVTVSS VL: DIVMTQSPLSLPVTPGEPASISCRSSQSLVHSNRNTYLHWYQQKPGQAPRLLIYKVSNRFSGVPDRFSGSGSGTDFTLKISRVEAEDVGVYYCGQGTQVPYTFGQGTKLEIK |
| 0.62 | CE115HA000 N31F (antibody, name in Kabat numbering, V domains shown) VH: QVQLVESGGGVVQPGRSLRLSCAASGFTFSFAWMHWVRQAPGKGLEWVAQIKAKSNNYATYYAESVKGRFTISRDDSKNSLYLQMNSLKTEDTAVYYCRYVHYGAYYGVDAWGQGTTVTVSS VL: DIVMTQSPLSLPVTPGEPASISCRSSQSLVHSNRNTYLHWYQQKPGQAPRLLIYKVSNRFSGVPDRFSGSGSGTDFTLKISRVEAEDVGVYYCGQGTQVPYTFGQGTKLEIK |
| 0.81 | CE115HA000 N31I (antibody, name in Kabat numbering, V domains shown) VH: QVQLVESGGGVVQPGRSLRLSCAASGFTFSIAWMHWVRQAPGKGLEWVAQIKAKSNNYATYYAESVKGRFTISRDDSKNSLYLQMNSLKTEDTAVYYCRYVHYGAYYGVDAWGQGTTVTVSS VL: DIVMTQSPLSLPVTPGEPASISCRSSQSLVHSNRNTYLHWYQQKPGQAPRLLIYKVSNRFSGVPDRFSGSGSGTDFTLKISRVEAEDVGVYYCGQGTQVPYTFGQGTKLEIK |
| 1.34 | CE115HA000 L78I (antibody, name in Kabat numbering, V domains shown) VH: QVQLVESGGGVVQPGRSLRLSCAASGFTFSNAWMHWVRQAPGKGLEWVAQIKAKSNNYATYYAESVKGRFTISRDDSKNSIYLQMNSLKTEDTAVYYCRYVHYGAYYGVDAWGQGTTVTVSS VL: DIVMTQSPLSLPVTPGEPASISCRSSQSLVHSNRNTYLHWYQQKPGQAPRLLIYKVSNRFSGVPDRFSGSGSGTDFTLKISRVEAEDVGVYYCGQGTQVPYTFGQGTKLEIK |
| 0.32 | CE115HA000 K64A (antibody, name in Kabat numbering, V domains shown) VH: QVQLVESGGGVVQPGRSLRLSCAASGFTFSNAWMHWVRQAPGKGLEWVAQIKAKSNNYATYYAESVAGRFTISRDDSKNSLYLQMNSLKTEDTAVYYCRYVHYGAYYGVDAWGQGTTVTVSS VL: DIVMTQSPLSLPVTPGEPASISCRSSQSLVHSNRNTYLHWYQQKPGQAPRLLIYKVSNRFSGVPDRFSGSGSGTDFTLKISRVEAEDVGVYYCGQGTQVPYTFGQGTKLEIK |
| 0.84 | CE115HA000 K64S (antibody, name in Kabat numbering, V domains shown) VH: QVQLVESGGGVVQPGRSLRLSCAASGFTFSNAWMHWVRQAPGKGLEWVAQIKAKSNNYATYYAESVSGRFTISRDDSKNSLYLQMNSLKTEDTAVYYCRYVHYGAYYGVDAWGQGTTVTVSS VL: DIVMTQSPLSLPVTPGEPASISCRSSQSLVHSNRNTYLHWYQQKPGQAPRLLIYKVSNRFSGVPDRFSGSGSGTDFTLKISRVEAEDVGVYYCGQGTQVPYTFGQGTKLEIK |
| 0.37 | CE115HA000 N31D (antibody, name in Kabat numbering, V domains shown) VH: QVQLVESGGGVVQPGRSLRLSCAASGFTFSDAWMHWVRQAPGKGLEWVAQIKAKSNNYATYYAESVKGRFTISRDDSKNSLYLQMNSLKTEDTAVYYCRYVHYGAYYGVDAWGQGTTVTVSS VL: DIVMTQSPLSLPVTPGEPASISCRSSQSLVHSNRNTYLHWYQQKPGQAPRLLIYKVSNRFSGVPDRFSGSGSGTDFTLKISRVEAEDVGVYYCGQGTQVPYTFGQGTKLEIK |
| 0.72 | CE115HA000 K64D (antibody, name in Kabat numbering, V domains shown) VH: QVQLVESGGGVVQPGRSLRLSCAASGFTFSNAWMHWVRQAPGKGLEWVAQIKAKSNNYATYYAESVDGRFTISRDDSKNSLYLQMNSLKTEDTAVYYCRYVHYGAYYGVDAWGQGTTVTVSS VL: DIVMTQSPLSLPVTPGEPASISCRSSQSLVHSNRNTYLHWYQQKPGQAPRLLIYKVSNRFSGVPDRFSGSGSGTDFTLKISRVEAEDVGVYYCGQGTQVPYTFGQGTKLEIK |
| 0.74 | CE115HA000 K64E (antibody, name in Kabat numbering, V domains shown) VH: QVQLVESGGGVVQPGRSLRLSCAASGFTFSNAWMHWVRQAPGKGLEWVAQIKAKSNNYATYYAESVEGRFTISRDDSKNSLYLQMNSLKTEDTAVYYCRYVHYGAYYGVDAWGQGTTVTVSS VL: DIVMTQSPLSLPVTPGEPASISCRSSQSLVHSNRNTYLHWYQQKPGQAPRLLIYKVSNRFSGVPDRFSGSGSGTDFTLKISRVEAEDVGVYYCGQGTQVPYTFGQGTKLEIK |
| 1.01 | CE115HA000 N31K (antibody, name in Kabat numbering, V domains shown) VH: QVQLVESGGGVVQPGRSLRLSCAASGFTFSKAWMHWVRQAPGKGLEWVAQIKAKSNNYATYYAESVKGRFTISRDDSKNSLYLQMNSLKTEDTAVYYCRYVHYGAYYGVDAWGQGTTVTVSS VL: DIVMTQSPLSLPVTPGEPASISCRSSQSLVHSNRNTYLHWYQQKPGQAPRLLIYKVSNRFSGVPDRFSGSGSGTDFTLKISRVEAEDVGVYYCGQGTQVPYTFGQGTKLEIK |
| 9.34 | CE115HA000 K75T (antibody, name in Kabat numbering, V domains shown) VH: QVQLVESGGGVVQPGRSLRLSCAASGFTFSNAWMHWVRQAPGKGLEWVAQIKAKSNNYATYYAESVKGRFTISRDDSTNSLYLQMNSLKTEDTAVYYCRYVHYGAYYGVDAWGQGTTVTVSS VL: DIVMTQSPLSLPVTPGEPASISCRSSQSLVHSNRNTYLHWYQQKPGQAPRLLIYKVSNRFSGVPDRFSGSGSGTDFTLKISRVEAEDVGVYYCGQGTQVPYTFGQGTKLEIK |
